The data set deals with the molecule itself. Description: Thioflavin T fluorescence assay of amyloid-like fibril formation; 10 μM recombinant protein in PBS without sarkosyl, 30 μM ThT, 37 °C for up to 98 hours; in parallel with 40 μM EGCG, an inhibitor of fibril formation.

B1: unfused recombinant Plasmodium falciparum merozoite surface protein 2 (3D7 allele) (domain or fragment)
chain: KNESKYSNTFINNAYNMSIRRSMAESKPSTGAGGSAGGSAGGSAGGSAGGSAGGSAGSGDGNGADAEGSSSTPATTTTTKTTTTTTTTNDAEASTSTSSENPNHKNAETNPKGKGEVQEPNQANKETQNNSNVQQDSQTKSNVPPTQDADTKSPTAQPEQAENSAPTAEQTESPELQSAPENKGTGQHGHMHGSRNNHPQNTSDSQKECTDGNKENCGAATSLLNNSS
notes: Predicted molecular weight 24,721 daltons; also called rPfMSP2; rPfMSP2 (3D7); not shown: His6, N-terminal, kept
Consider B1, for which the binding result is “binds”.
